Data: the supplement of paper PMC9732359
± gives the uncertainty stated by the source.

experiment: protein stability index of a GFP-peptide fusion (yeast GPS) (PSI 1-4); higher = more stable; sorted into four equal gates, so the index is relative within each strain; details: pdr5∆
Procedure, shortened: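 For each peptide, the protein stability index sums the read frequency in every gate after multiplying it by the gate number. Read frequencies came from plasmids that were PCR-amplified from each gate and Illumina-sequenced, with reads assigned to strains by barcodes. The gates were four equal bins of GFP/Cherry fluorescence ratio applied to mid-log yeast in leucine-free medium carrying a pooled library of tiled 17-residue yeast protein peptides fused downstream of GFP on a Cherry-expressing plasmid.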

| Sequence | protein stability index |
| --- | --- |
| LPSAVDGENDKKEATKP [YLR335W/NUP2] | 3.29 ± 0.067 |

same assay, conditions: san1∆

| Sequence | protein stability index |
| --- | --- |
| LFLTAPDSCNMQEKAAH [YCS4] | 2.86 ± 0.12 |
| LFPEQQNKEIKAERVED [RPL6A] | 3.59 ± 0.065 |
| LFPIVKKHGKTDYFLPK [YJL039C/NUP192] | 2.58 ± 0.15 |
| LFPNELYNVMGINKKKL [RPC31] | 3.29 ± 0.082 |
| LFSKNRNEVLESMDFLV [YCS4] | 2.43 ± 0.076 |
| LGDMAVCFNNLVDENTD [YCS4] | 2.72 ± 0.076 |
| LGFTPGELRSYLKGATG [FAS1] | 3.33 ± 0.17 |
| LGIALIALGEDIGKEMS [RPN1] | 2.9 ± 0.1 |
| LGINLVTADTVILFDSD [ISW2] | 2.51 ± 0.16 |
| LGKKGVPYVVTHDGRTI [RPS4A] | 1.66 ± 0.098 |
| LGLKFDDLIAEENPIMQ [QCR7] | 2.32 ± 0.16 |
| LGNDIPHDLIIGTADIF [BRR2] | 2.84 ± 0.059 |
| LGNVDAFQLADGIHYIL [PRP8] | 2.42 ± 0.1 |
| LGPLSYQNMAFITAKDK [YJR042W/NUP85] | 2.26 ± 0.079 |
| LGYARFILLDRLRQFNL [SMC4] | 1.75 ± 0.079 |
| LGYPPISLVDDIINAVN [MTW1] | 2.44 ± 0.063 |
| LHANGASFFFMVMFMHM [COB] | 1.37 ± 0.065 |
| LHQYYGDDESKIPAVEY [FAS1] | 2.96 ± 0.19 |
| LHVLPTLNSRALSGLYY [SNM1] | 2.12 ± 0.065 |
| LHYIPKYNRYEKRHKNV [RPS11A] | 1.78 ± 0.089 |
| LIAIVSKLLQTTLKLSP [NUT1] | 1.31 ± 0.11 |
| LIEKVDDTAANNGDKDH [YIL149C/MLP2] | 2.99 ± 0.086 |
| LIESLNTIRQNVTSSGD [YML103C/NUP188] | 1.17 ± 0.23 |
| LIGRPPLLVPGMTPCTV [FAS1] | 1.81 ± 0.11 |
| LIIQYPPNNARRTYNTL [ISW2] | 2.43 ± 0.052 |
| LIPCKYLNRHADFFVRE [RPN7] | 2.18 ± 0.19 |

| Sequence | protein stability index |
| --- | --- |
| LIRFDESITKAMEFIFG [SMC2] | 2.35 ± 0.16 |
| LISGAGANPRVLSTFTA [RPN10] | 2.02 ± 0.2 |
| LISIHSRENNSEYMVFG [YJL039C/NUP192] | 2.77 ± 0.1 |
| LISSSLSNLSKDIKANL [YCS4] | 1.87 ± 0.1 |
| LISSSQDMQLKIWSVKD [RPN14] | 2.56 ± 0.17 |
| LITSSARKELPIFDYIH [SIR3] | 1.92 ± 0.068 |
| LIYHLKDCAEVDSRTKI [IRR1] | 3.02 ± 0.058 |
| LKAQITSLKCLVNRKPI [SNF2] | 1.6 ± 0.062 |
| LKDFNTERVVEIGPSPT [FAS2] | 2.861 ± 0.017 |
| LKENNAILQKSLKNVTE [YIL149C/MLP2] | 2.89 ± 0.038 |
| LKEVLYNDSATSGEAAA [RPN2] | 1.86 ± 0.11 |
| LKEVPTYRYVSVSVLVD [RPS25A] | 1.33 ± 0.1 |
| LKEYQSKIIVFPRDGKA [RPL13B] | 3.22 ± 0.048 |
| LKEYQSKIIVFPRNGKA [RPL13A] | 2.98 ± 0.055 |
| LKIYAQIEKKEIKKMII [YCG1] | 2.89 ± 0.057 |
| LKIYYKEEFSSDESIER [RRI2] | 2 ± 0.23 |
| LKLENLHVVSKSSIEKD [SIN4] | 3.14 ± 0.1 |
| LKLNTSLPSKLTKYKEM [SRP68] | 1.58 ± 0.1 |
| LKLSMADYNGALLRVTK [POP4] | 2.61 ± 0.07 |
| LKNYVLNELHPTLPTNH [PRP8] | 2.53 ± 0.064 |
| LKPKLYYEQFRPDLIKE [SIR3] | 3.25 ± 0.05 |
| LKRSTELLETVSLTKRK [YIL149C/MLP2] | 2.09 ± 0.079 |
| LKSLNDIETQLCSMLQE [MED11] | 2.73 ± 0.11 |
| LKSLYSFFNISPDAPKE [SIN4] | 1.43 ± 0.079 |
| LKTVLHNGRDKIQFHIH [RGR1] | 1.41 ± 0.074 |
| LKYHDFLRKATAFNKTR [RPL16B] | 2.77 ± 0.053 |

| Sequence | protein stability index |
| --- | --- |
| LKYYQDLKNTRMKSITS [SNF5] | 2.4 ± 0.15 |
| LLDAYSHIESDSTSHNN [MED1] | 2.6 ± 0.057 |
| LLEGLNEKIEKRSDLTG [UBP6] | 3.18 ± 0.081 |
| LLESYKTLSLKSMASAF [RPN7] | 1.89 ± 0.14 |
| LLGIFDDIFIPQNMLFE [RPC25] | 2.52 ± 0.095 |
| LLGTMAGGAADCQFWET [PRE2] | 2.22 ± 0.084 |
| LLHERKLLNDLALENGE [NUT1] | 2.54 ± 0.083 |
| LLIISCIIFITFEFINI [YML031W/NDC1] | 1.28 ± 0.079 |
| LLISYGVSIENENKVII [SRB4] | 3.13 ± 0.092 |
| LLKDIFANNLKSAISNN [SIR4] | 2.44 ± 0.043 |
| LLKEEKIIELMNKIFTI [YML103C/NUP188] | 1.26 ± 0.15 |
| LLKLERKKTEAVARLKS [SNF2] | 2.06 ± 0.091 |
| LLLAANTHLGARNVQVH [RPS0A] | 1.17 ± 0.061 |
| LLLDNGFNMKKITTSTE [SRP68] | 3.05 ± 0.17 |
| LLLKDQQTAKKLIPKLY [ECM29] | 2.32 ± 0.096 |
| LLLKKLDNFQKSVEKTM [SMC3] | 2.44 ± 0.24 |
| LLLTIQLLIIEKEWENA [SRP72] | 2.07 ± 0.12 |
| LLNDECTESTRENALYD [SNF2] | 3.31 ± 0.071 |
| LLNEYRPHQSRESLIML [MED7] | 2.01 ± 0.12 |
| LLNHGERAELETDEYIS [RPN1] | 3.08 ± 0.11 |
| LLNLPPFQVSSFVKETK [SRB8] | 2.04 ± 0.05 |
| LLPANLLSLNSVRSLQK [SRP68] | 2.49 ± 0.057 |
| LLQEGGSLSGNSSSMEE [ESC2] | 2.38 ± 0.13 |
| LLQKMLNLLNYQELFIQ [YML103C/NUP188] | 1.38 ± 0.07 |
| LLRPSSKVIIKFLQVMQ [RPS22B] | 1.72 ± 0.13 |
| LLRSRLATRRVLQEYRL [RPO21] | 2.27 ± 0.11 |

| Sequence | protein stability index |
| --- | --- |
| LLTKNVSCYRPRRDGER [RPS6A] | 3.19 ± 0.085 |
| LLVFRNADLDLDEMELH [YDL116W/NUP84] | 3.01 ± 0.054 |
| LLVIGGNQRKILQYSRT [YJR042W/NUP85] | 1.46 ± 0.14 |
| LLVKLSKRLPLRFPEHT [BRR2] | 2.25 ± 0.17 |
| LMETLRTLRRKGDINPE [RPB2] | 2.85 ± 0.088 |
| LMRQALAIKDSKKRFAA [RPO21] | 1.98 ± 0.072 |
| LNEIKEHKIVVLGNSRG [RPN14] | 3.18 ± 0.15 |
| LNEYKRETLVKTWEKVT [SMC2] | 1.77 ± 0.083 |
| LNFKDDKKYKGLTTVWL [REC8] | 2.64 ± 0.13 |
| LNGILADEMGLGKTIQT [SNF2] | 3.29 ± 0.066 |
| LNHRNKNQHRAASWYGS [RMP1] | 3.17 ± 0.056 |
| LNLDSLLVDQKQLNSLR [SMD1] | 2.98 ± 0.067 |
| LNNLPYKNEDVTALLEQ [YCS4] | 3.05 ± 0.047 |
| LNSNIRAGVTIPSIPNP [SNF5] | 2.5 ± 0.062 |
| LNSNNSIIGNKNNNYTW [REC8] | 2.87 ± 0.07 |
| LNTFHFAGVASKKVTSG [RPO21] | 2.9 ± 0.065 |
| LNVGNVLPLGSVPEGTI [RPL2A] | 3.26 ± 0.1 |
| LNVVMKNLERLRGEYND [SMC4] | 3.37 ± 0.068 |
| LPAPPVCIRPSVMMQDS [RPO31] | 1.93 ± 0.11 |
| LPIESQFVSKLVDNLNA [BRR2] | 2.5 ± 0.072 |
| LPKIIQLQGPQWMNEMV [SOH1] | 3.14 ± 0.066 |
| LPKLNLPKYQTIQYDPP [SNF5] | 2.31 ± 0.16 |
| LPQCIIPSSYIKRTDEG [ARP7] | 2.13 ± 0.099 |
| LPRYQELTKEEAMYKLQ [SMC3] | 3.43 ± 0.092 |
